Patent US10076576B2, “Minimally toxic prodrugs” (priority 2012, dated 2018)
Values joined by “and” are separate entries in the source; they are usually repeats but may differ in a detail not shown here. Equal values may be shown once. “Also recorded” adds a separate entry of the source.

Experiments:
[1] = Stability in citrated human plasma; conditions: 5 hours incubation at 37° C. in citrated human plasma (pH7), 50 μM
Description: The drug conjugates (50 μM) were mixed with human plasma and incubated for 5 hours at 37° C. in a water bath. […] Supernatant was collected.

[2] = target: T1, TOP (recombinant human thimet oligopeptidase) (Homo sapiens, UniProt P52888); assay: Reactivation assay with purified TOP; assay type: biochemical; conditions: 3 h at 37° C., 50 μM compound
T1 construct: purchased R&D systems 3439-ZN
T1 sequence (P52888 whole entry): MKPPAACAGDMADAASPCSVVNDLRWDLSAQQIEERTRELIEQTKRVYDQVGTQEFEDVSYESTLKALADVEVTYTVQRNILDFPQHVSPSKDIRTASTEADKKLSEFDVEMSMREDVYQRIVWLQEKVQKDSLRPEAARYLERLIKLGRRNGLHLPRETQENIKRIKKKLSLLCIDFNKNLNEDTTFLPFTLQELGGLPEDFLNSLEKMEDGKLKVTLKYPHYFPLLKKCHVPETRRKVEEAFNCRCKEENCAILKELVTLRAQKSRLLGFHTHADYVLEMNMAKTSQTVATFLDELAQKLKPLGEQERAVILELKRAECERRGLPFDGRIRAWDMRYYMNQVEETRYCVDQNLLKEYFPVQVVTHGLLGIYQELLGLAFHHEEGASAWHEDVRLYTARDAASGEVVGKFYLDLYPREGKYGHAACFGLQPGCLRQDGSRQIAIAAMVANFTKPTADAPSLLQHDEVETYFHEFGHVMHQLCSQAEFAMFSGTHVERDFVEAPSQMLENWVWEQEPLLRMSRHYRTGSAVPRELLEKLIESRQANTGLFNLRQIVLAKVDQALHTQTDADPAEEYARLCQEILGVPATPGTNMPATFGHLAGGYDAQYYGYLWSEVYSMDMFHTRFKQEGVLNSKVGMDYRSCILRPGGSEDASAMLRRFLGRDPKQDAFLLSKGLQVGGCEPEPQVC
Description: (§1) TOP (recombinant human thimet oligopeptidase, R&D systems, Ref 3439-ZN) was diluted at 10 nM in a solution of 50 mM Tris-HCl pH 7.4/0.5M NaCl/0.1M DTT. CD26 and FAP were diluted at 1 μg/mL in a Tris-HCl pH 7.5 buffer. Reactions were initiated by addition of 50 μM of each compound to enzymes solutions (1 V enzyme solution+1 V 100 μM drug solution). Samples were incubated for 0, 1, or 3 hours at 37° C. in a water bath in the presence of purified enzymes. Fifty μL of sample were collected at each time point and processed as described above for human plasma. Activation of Suc-βALAL-dox was tested in parallel as a reference.

[3] = target: CD26 (Homo sapiens, UniProt P27487); assay: Reactivation assay with purified CD26; assay type: biochemical; conditions: CD26 1 μg/ml
CD26, sequence (P27487 whole entry): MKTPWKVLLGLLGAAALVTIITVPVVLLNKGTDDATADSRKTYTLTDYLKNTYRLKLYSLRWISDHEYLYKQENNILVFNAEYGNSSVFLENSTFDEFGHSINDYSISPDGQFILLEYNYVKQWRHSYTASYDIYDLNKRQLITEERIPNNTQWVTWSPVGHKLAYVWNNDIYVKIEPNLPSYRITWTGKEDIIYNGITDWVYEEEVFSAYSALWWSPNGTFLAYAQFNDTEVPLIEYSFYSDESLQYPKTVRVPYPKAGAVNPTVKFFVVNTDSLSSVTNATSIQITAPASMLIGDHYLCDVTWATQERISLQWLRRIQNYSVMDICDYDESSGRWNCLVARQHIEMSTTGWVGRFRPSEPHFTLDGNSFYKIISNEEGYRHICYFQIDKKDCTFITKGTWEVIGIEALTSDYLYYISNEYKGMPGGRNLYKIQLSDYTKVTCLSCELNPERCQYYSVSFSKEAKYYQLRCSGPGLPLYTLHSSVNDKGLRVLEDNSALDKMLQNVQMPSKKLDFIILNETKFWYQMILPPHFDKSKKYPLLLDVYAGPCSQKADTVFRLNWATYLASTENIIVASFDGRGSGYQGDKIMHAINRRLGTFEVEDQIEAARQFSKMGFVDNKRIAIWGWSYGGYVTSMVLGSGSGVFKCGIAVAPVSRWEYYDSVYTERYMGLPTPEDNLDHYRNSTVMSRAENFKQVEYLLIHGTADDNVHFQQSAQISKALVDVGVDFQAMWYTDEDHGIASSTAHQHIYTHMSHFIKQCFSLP
Description: as §1

[4] = target: T2, FAP (Homo sapiens, UniProt Q12884); assay: Reactivation assay with purified FAP; assay type: biochemical
T2 sequence (Q12884 1-760): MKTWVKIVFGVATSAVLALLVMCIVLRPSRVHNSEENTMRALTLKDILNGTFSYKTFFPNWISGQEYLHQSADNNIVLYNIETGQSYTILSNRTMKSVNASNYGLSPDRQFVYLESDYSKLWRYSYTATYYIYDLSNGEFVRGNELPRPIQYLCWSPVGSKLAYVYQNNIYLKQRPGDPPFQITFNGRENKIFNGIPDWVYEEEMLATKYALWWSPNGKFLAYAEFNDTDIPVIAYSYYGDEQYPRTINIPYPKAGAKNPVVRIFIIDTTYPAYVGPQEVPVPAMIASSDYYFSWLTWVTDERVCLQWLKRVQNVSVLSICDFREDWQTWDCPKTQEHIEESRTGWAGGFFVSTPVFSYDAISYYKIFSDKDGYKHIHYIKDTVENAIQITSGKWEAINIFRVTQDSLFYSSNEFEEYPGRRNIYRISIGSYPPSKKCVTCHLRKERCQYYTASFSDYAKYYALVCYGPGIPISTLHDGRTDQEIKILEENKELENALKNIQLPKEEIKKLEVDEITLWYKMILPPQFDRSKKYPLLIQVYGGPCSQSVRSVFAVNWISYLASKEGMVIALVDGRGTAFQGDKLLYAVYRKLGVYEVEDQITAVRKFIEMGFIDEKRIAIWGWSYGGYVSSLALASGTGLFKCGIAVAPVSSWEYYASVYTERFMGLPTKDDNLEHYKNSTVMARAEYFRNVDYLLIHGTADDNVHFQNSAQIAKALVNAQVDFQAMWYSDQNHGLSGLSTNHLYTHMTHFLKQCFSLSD
Description: as §1

[5] = system: LoVo colon carcinoma xenografts; assay: Activation at the tumor site after single iv bolus, LoVo xenograft; assay type: in vivo, NMRI nude mice; conditions: 24 hours after single iv injection, 15-620 μmol/kg
Description: FIG. 6. PhAc-ALGP-Dox was administered at increasing concentrations (15, 35, 50, 100, 200, 300, 460, 620 μmol/kg) by intravenous injection to NMRI nude mice bearing LoVo colon carcinoma xenografts (3 mice per group). After 24 hours, mice were sacrificed and tumors were collected. Doxorubicin tumor concentration was determined after extraction by HPLC analysis. Results represent the average Doxorubicin tumor concentration (pmol/mg protein)±SD.
Drugs or controls were administered four weeks after subcutaneous implantation of the xenograft. […] The PhAc-ALGP-Dox conjugate was dissolved in saline at increasing doses (1.5, 3.5, 5, 10, 20, 30, 46, and 62 mM). […] Twenty-four hours after injection, mice were sacrificed by cervical dislocation and tumors were collected, rinsed in phosphate buffer saline and homogenized. An extraction of drugs from tumor homogenates was performed with acetonitrile and Doxorubicin present in tumors was quantified by HPLC analysis.

[6] = assay type: in vivo, CD1 mice
Text: FIG. 13. Evaluation of chronic cardiotoxicity of PhAc-ALGP-Dox in CD-1 mice. Animals received 10 intravenous injections (arrows) of saline (●); Doxorubicin 6.9 μmol/kg (▪) or of PhAc-ALGP-Dox at 13.8 (▴), 27.6 (×), 55.2 (*) and 82.8 μmol/kg (◯). Results represent the evolution of the average relative body weight (%). †=dead mouse.
Chronic cardiac toxicity of PhAc-ALGP-Dox in mice was morphologically evaluated as previously described by Bertazzoli et al. 1979 (Cancer Treat Rep 63, 1877-1883). CD1 female white mice were treated by bolus intravenous injection in the tail vein at 10 μL/g (6 mice per group). Compounds were injected twice a week, ten times. Animals were not treated for 2 weeks between the first four injections and the last six injections to allow recovery of the bone marrow depression. The treatment dose-levels of PhAc-ALGP-Dox were: 13.8; 27.6; 55.2; and 82.8 μmol/kg. Doxorubicin 6.9 μmol/kg was used as a reference. Three weeks after the last injection, animals were deeply anaesthetized by intraperitoneal injection of nembutal (50 mg/kg) and exsanguinated. The hearts were carefully collected, rinsed in NaCl 9°/oo and fixed in a 10% formaldehyde solution. Samples were processed for histopathological analysis (CITox Lab, France). The heart was trimmed, embedded in paraffin wax, sectioned at a thickness of 4 microns and stained with hematoxylin-eosin before microscopic evaluation. During the course of the experiment, body weight was controlled before each injection or once a week.

[7] = Stability in citrated human blood; conditions: 5 hours incubation at 37° C. in citrated human blood, 50 μM
[8] = 13.8-82.8 μmol/kg, 10 iv injections

Question: With `COc1cccc2c1C(=O)c1c(O)c3c(c(O)c1C2=O)CC(O)(C(=O)CO)CC3OC1CC(NC(=O)C2CCCN2C(=O)CNC(=O)C(CC(C)C)NC(=O)C(C)NC(=O)CP(=O)(O)O)C(O)C(C)O1` (stereo not shown) [PhAc-ALGP-Dox, PhAc-ALGP-doxorubicin] as the compound, how does the “% metabolites released: Dox” value [1] read?
Answer: 2%

Question: What about the “% metabolites released: GP-dox” value [1] of the same compound?
Answer: 0%

Question: And the “% metabolites released: P-Dox” value [1]?
Answer: 0%

Question: What about the total % metabolites [1] of the same compound?
Answer: 2%

Question: And the “% Metabolites released after 3 h (TOP 5 nM)” value [2]?
Answer: 72% and 72 ± 14%

Question: What about the “hydrolysis by CD26 (in words)” value [3] of the same compound?
Answer: Neither CD26 nor FAP hydrolized; also recorded: did not hydrolyze

Question: And the “hydrolysis by FAP (in words)” value [4]?
Answer: Neither CD26 nor FAP hydrolized; also recorded: did not hydrolyze

Question: What about the “injected dose at which Dox tumor concentration reaches a plateau” value [5] of the same compound?
Answer: 200 µmol/kg

Question: What about the “body weight loss (in words)” value [6, 8] of the same compound?
Answer: No body weight loss

Question: What about the “pathologic microscopic findings in the heart (in words)” value [6, 8] of the same compound?
Answer: did not induce any pathologic microscopic findings in the heart at any dose levels

Question: And the “Atrophy; myofiber” value ([6]; mouse, in vivo, iv)?
Answer: 0

Question: What about the “Atrophy; myofiber Grade 1” value ([6]; mouse, in vivo, iv) of the same compound?
Answer: 0

Question: And the “Atrophy; myofiber Grade 2” value ([6]; mouse, in vivo, iv)?
Answer: 0

Question: What about the “Degeneration/necrosis; myocardium” value ([6]; mouse, in vivo, iv) of the same compound?
Answer: 0

Question: And the “Degeneration/necrosis; myocardium Grade 1” value ([6]; mouse, in vivo, iv)?
Answer: 0

Question: What about the “Enlarg. Nuclei; myofib.” value ([6]; mouse, in vivo, iv) of the same compound?
Answer: 0

Question: And the “Enlarg. Nuclei; myofib. Grade 1” value ([6]; mouse, in vivo, iv)?
Answer: 0

Question: What about the “Infiltration; mix. Cells” value ([6]; mouse, in vivo, iv) of the same compound?
Answer: 0

Question: What about the “Infiltration; mix. Cells Grade 1” value ([6]; mouse, in vivo, iv) of the same compound?
Answer: 0

Question: And the “Thrombus; atrium” value ([6]; mouse, in vivo, iv)?
Answer: 0

Question: What about the “Thrombus; atrium Grade 1” value ([6]; mouse, in vivo, iv) of the same compound?
Answer: 0

Question: And the “Vacuolation; myofib.” value ([6]; mouse, in vivo, iv)?
Answer: 0

Question: And the “Vacuolation; myofib. Grade 1” value ([6]; mouse, in vivo, iv)?
Answer: 0

Question: What about the “Vacuolation; myofib. Grade 2” value ([6]; mouse, in vivo, iv) of the same compound?
Answer: 0

Question: What about the “% metabolites released: Dox” value [7] of the same compound?
Answer: 6%

Question: And the “% metabolites released: GP-dox” value [7]?
Answer: 3%

Question: And the “% metabolites released: P-Dox” value [7]?
Answer: 0%

Question: And the total % metabolites [7]?
Answer: 9%
